Results: patent US20230295310A1 (ABCELLERA BIOLOGICS, published 2023)

Key:
human CD3 = human CD3 (human, UniProt P07766 23-207; P04234 22-171; P09693 23-182); assay: cell-based or functional assay
[1] = molecular target: T1, human CD3 expressed on cells (human, UniProt P07766 23-207; P04234 22-171; P09693 23-182); assay: flow cytometry, 25 nM
T1 construct: whole, on cells; CD3 complex on Jurkat cells and on human primary T cells
Experimental: Purified antibodies were confirmed to bind CD3 expressed on cells using the CytoFLEX S or LX flow cytometers (Beckman Coulter). Antibodies were diluted to 25 nM in FACS buffer (PBS+2% FBS) and were incubated with CD3-expressing cells for 30 minutes at 4° C. […] The median fluorescence intensity of the binding signal for each antibody was normalized to the isotype control to obtain a fold over isotype value. An antibody with a fold over isotype (FOI) of ≥10 was considered to be positive for binding.

T1 sequence (P07766 23-207, chain 1 of 3): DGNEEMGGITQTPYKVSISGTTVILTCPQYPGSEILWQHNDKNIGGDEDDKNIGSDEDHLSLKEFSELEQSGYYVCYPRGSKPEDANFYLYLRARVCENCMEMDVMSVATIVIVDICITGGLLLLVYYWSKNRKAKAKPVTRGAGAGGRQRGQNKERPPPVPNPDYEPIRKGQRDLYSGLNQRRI
T1 sequence (P04234 22-171, chain 2 of 3): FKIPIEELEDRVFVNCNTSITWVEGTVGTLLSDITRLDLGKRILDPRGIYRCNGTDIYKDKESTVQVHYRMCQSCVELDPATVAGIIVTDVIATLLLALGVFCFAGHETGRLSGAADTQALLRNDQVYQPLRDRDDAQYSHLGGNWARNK
T1 sequence (P09693 23-182, chain 3 of 3): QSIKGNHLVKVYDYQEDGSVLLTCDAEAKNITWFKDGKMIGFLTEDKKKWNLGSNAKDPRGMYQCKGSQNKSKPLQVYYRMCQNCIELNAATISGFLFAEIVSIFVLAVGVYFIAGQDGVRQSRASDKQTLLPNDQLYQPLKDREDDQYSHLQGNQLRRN
Chain of human CD3 (P07766 23-207, chain 1 of 3): as the sequence (P07766 23-207, chain 1 of 3) above
Chain of human CD3 (P04234 22-171, chain 2 of 3): as the sequence (P04234 22-171, chain 2 of 3) above
Chain of human CD3 (P09693 23-182, chain 3 of 3): as the sequence (P09693 23-182, chain 3 of 3) above

Binder	CD4 EC50 (nM); CD69/CD25 on human T cells, plate-coated antibody (human CD3)	CD8 EC50 (nM); CD69/CD25 on human T cells, plate-coated antibody (human CD3)	Human primary T Cell Binding (FOI) [1]	Jurkat Cell Binding (FOI) [1]
mAb 142 (antibody, V domains shown) VH: QVQLVESGGGVVQPGRSLRLSCAASGFTFSSYGMHWVRQAPGKGLEWVAVIWYDGSNKYYADSVKGRFTISRDNSKNTLYLQMNSLRAEDTAVYYCARTGITGTTAYFYFDSWGQGTLVTVSS VL: not shown	26.9 nM	32 nM		
mAb 137 (antibody, V domains shown) VH: QVQLVESGGGVVQPGRSLRLSCAASGFTFSTYGMHWVRQAPGKGLEWVAVIWYDGSHKYYADSVKGRFTISRDNSKKTLYLQMNSLRAEDTGIYYCARTGISGNMSYFYFDHWGQGILVTVSS VL: not shown	13.1 nM	14.1 nM		
mAb 140 (antibody, V domains shown) VH: QVQLVESGGGVVQPGRSLRLSCAASGFTFSTYGMHWVRQAPGKGLEWVAVIWYDGSHKYYADSVKGRFTISRDNSKNTLYLQMNSLRAEDTAVYYCARTGITGTTAYFYFDYWGQGTLVTVSS VL: not shown [mAb 140, listing 1 of 2 here]	13.7 nM	17.8 nM		
mAb 140 (antibody, V domains shown) VH: QVQLVESGGGVVQPGRSLRLSCAASGFTFSTYGMHWVRQAPGKGLEWVAVIWYDGSHKYYADSVKGRFTISRDNSKNTLYLQMNSLRAEDTAVYYCARTGITGTTAYFYFDYWGQGTLVTVSS VL: not shown [mAb 140, listing 2 of 2 here]			148 FOI	135 FOI
mAb 146 (antibody, V domains shown) VH: QVQLVESGGGVVQPGRSLRLSCAASGFTFITYGMHWVRQAPGKGLEWVAVIWYDGSHKYYADSVKGRFTISRDNSKNMLYLQMNSLRVEDTAVYYCARTGITGTTAYFYFDNWGQGTLVTVSS VL: not shown			340 FOI	194 FOI
mAb 144 (antibody, V domains shown) VH: QVQLVESGGYVVQPGRSLRLSCAASGFTFSNFGMHWVRQAPGKGLEWVAVIWYDGSHKYYADSVKGRFTISRDNSKNTLYLQMNSLRAEDTAVYYCARTGITGTTAYFYFDYWGQGTLVTVSS VL: not shown			157 FOI	139 FOI
mAb 131 (antibody, V domains shown) VH: EVQLVESGGGLVKTGGSLRISCVASGFSFKKAWMNWVRQAPGKGLEWVGRIKRNTDGGTIDYAAPVKGRFSLSRDDSKNTLFLQMNSLKTEDTAVYFCTTLDSSSYYVGYYYMDVWGKGTTVTVSS VL: DIHMTQSPSSVSASVGDRVTITCRASQDINNWLAWYQQKPGKAPKLLIYTASSLQSGVPSRFSGSGSGTDFTLTISSLQPEDFATYFCQQAHSLPITFGQGTRLGIK	13.3 nM	13.3 nM		
mAb 132 (antibody, V domains shown) VH: DVQLVESGGGTVKTGGSLRLSCVASGFSFKKAWMNWVRQAPGKGLEWVGRIKKNSDGGTADYAAPVKGRFTISRDDSKKTLYLQMNSLQTEDTAVYYCTTLDSSSWYVGYYYMDVWGKGTTVTVSS VL: DIQMTQSPSSVSASVGDRVIITCRASQDINNWLAWYQQKPGIAPKLLIYTASSLQSGVPSRFSGSGSVSDFTLTIGSLQPEDFATYYCQQAHSLPITFGQGTRLEIK	6.39 nM	6.34 nM		
mAb 133 (antibody, V domains shown) VH: EVQLVESGGGLVKTGGSLRLSCVASGFSFKKAWMSWVRQAPGKGLEWVGRIKRNTDGGTADYAAPVKGRFTLSRDDSKKTLFLQMNSLKTEDSAVYYCVTLDSSSYYVGYYYMDVWGKGTTVTVSS VL: DIQMTQSPSSVSASVGDRVSITCRASQDINNWLAWYQQKPGKAPKLLIYTASSLQSGVPSRFSGSGSGTDFTLTIGSLQPEDFATYYCQQAHSLPITFGQGTRLEIK	13.9 nM	13.6 nM		
mAb 161 (antibody, V domains shown) VH: EVQLVESGGGLVQPGRSLRLSCAASGITFADYTMHWVRQAPGKGLEWVSGISWNSGSIDYADSVKGRFTISRDNAKKTLYLQMNRLRAEDTALYYCAKDSSGYGHYYFYYLDVWGKGTTVTVSS VL: EIVMTQSPATLSVSPGERATLSCRASQSVSNNLAWYQQKPGQAPRLLIYSTSTRATGIPARFSGSRSGTEFTLTISSLQSEDSAVYYCQQYNNWPHFGQGTRLEIK			170 FOI	106 FOI
mAb 49 (antibody, V domains shown) VH: EVQLVESGGGLVPPGGSLRLSCVASGFTLRSYTMNWVRQAPGQGLEWISYISSTSRTIYYSDSVKGRFTISRDNAKNSLYLQVNSLRDEDTALYYCAREDYYDSSGFDCWGQGTLVTVSS VL: AIRMTQSPSSFSASTGDRVTITCRASQGIFNYLAWYQQKPGKAPKLLIYSTSTLQSGVPSRFSGSGSGTDFTLTIRGLQSEDLATYYCQQYYSFPRTFGQGTKVDIK	6.76 nM	6.65 nM		
mAb 42 (antibody, V domains shown) VH: QAQLVQSGSELKKPGASVKVSCKASGYTFTKHSMNWVRQAPGQGLEWMGWINTNTGNPTYAQGFTGRFVFSLDTSVTTAYLQISSLKAEDTAVYYCAREGDYDFWSGFFNFDYWGQGTLVTVSS VL: DIQMTQSPSSLSASVGDRVTITCRASQGIRNDLGWYQQKPGKAPKRLIYAASSLQSGVPSRFSGSGSGAEFTLTISSLQPEDFATYYCLQHNSYPRTFGQGTKVEIK	25.4 nM	25.5 nM		
mAb 50 (antibody, V domains shown) VH: QAQLVQSGSELKKPGASVKVSCKASGYTFTRHAMNWVRQAPGQGLEWMGWINTNTGNPTYAQGFTGRFVFSLDTSVTTAYLQISSLKAEDTAVYYCAREGDYDFWSGFFNFDYWGQGTLVTVSS VL: DIQMTQSPSSLSASVGDRVTITCRASQGIRNDLGWFQQKPGKAPTRLIYAASSLQSGVPSRFSGSGSGAEFTLTISSLQPEDFATYYCLQHNSYPRTFGQGTKVEIK	26.3 nM	24.5 nM		
mAb 43 (antibody, V domains shown) VH: QAQLVQSGSELKKPGASVKVSCKASGYTFTKHSMNWVRQAPGQGLEWMGWINTNTGNPMYAQGFTGRFVFSLDTSVTTAYLQISSLKAEDTAVYYCAREGDYDFWSGFFNFDYWGQGTLVTVSS VL: DIQMTQSPSSLSASVGDRVTITCRASQGIRNDLGWYQQKPGKAPKRLIYAASSLQSGVPSRFSGSGSGAEFTLTISSLQPEDFATYYCLQHNSYPRTFGQGTKVEIK			83.3 FOI	108 FOI
mAb 68 (antibody, V domains shown) VH: EVQLVDSGGGLVQPGGSLRLSCSGSGFTFSSYWMSWVRQAPGKGLEWVANIKQDGSQKYYVDSVKGRFTISRDNVKNSLYLQMNSLRVEDTAVYYCARDESSSWYWYFDLWGRGTLVTVSS VL: DIQMTQSPSTLSASVGDRVTLTCRASQNIVKWLAWYQQKPGKAPKLLIYKASSLESGVPSWFSGSGSGTEFTLTINSLQPDDFATYYCQQYYTYSRTFGQGTKVEIK			117 FOI	113 FOI
mAb 77 (antibody, V domains shown) VH: EVQLVESGGGLVQPGGSLRLSCAASGFTFSNYWMSWVRQAPGKGLEWVANIKQDGSEKYYVDSVRGRFTISRDNAKKSLYLQMNSLRAEDTAVYYCARDNSNYAYWYFDIWGRGTLVTVSS VL: DIQMTQSPSTLSVSVGDRVTITCRASQSIRKWLAWYQQKPGKAPKLLIFKASSLESGVPSRFSGSGSGTEFTLTISSLQPDDFATYYCQQYDTYSRTFGQGTKVEIK			125 FOI	106 FOI
mAb 167 (antibody, V domains shown) VH: EVHLVESGGGLVQPGRSLRLSCAASGFTFDDYAMHWVRQAPGKGLEWVSGISWNSGTIGYADSVKGRFTISRDNAKNSLYLEMNSLRAEDTALYYCAKDSSGYGHYYHYYIDVWGTGTTVTVSS VL: EIVMTQSPATLSVSPGGRATLSCRASQSVGSNLAWYQQKPGQAPRLLIYDASTRATGIPARFRGSGSGTEFTLTISGLQSEDFAVYYCQLYYNWPHFGQGTRLEIK			167 FOI	124 FOI
mAb 141 (antibody, V domains shown) VH: QVQLVQSGAEVKKPGASVKVSCKASGYTFTSYYIHWVRQAPGQGLDWMGIINPSGGITGYAQKLQGRVTMTRDTSTTTVYMELSSLRSDDTAVYYCARGVRGNYYYYYMDVWGKGTTVTVSS VL: EIVLTQSPDFQSVTPKEKVTITCRASQSIGSKLHWYQQKPDQSPKLLIKYASQSFSGVPSRFSGSGSGTDFNLTINSLEAEDAATFYCHQSSGLPYTFGQGTKLEIK	22.1 nM	22.8 nM		
mAb 145 (antibody, V domains shown) VH: QVQLVQSGAEVKKPGASVKVSCKASGYTFTNYYIHWVRQAPGQGLDWMGIINPSGGITGYAQKFQGRVTMTRDTSTTTVYMELSSLRSDDTAVYYCARGVRGNYYYYYMDVWGKGTTVTVSS VL: EIVLTQSPDFQSVTPKEKVTITCRASQSIGSKLHWYQQKPDQSPKLLIKFASQSFSGVPSRFSGSGSGTDFNLTINSLEPEDAATFYCHQSSGLPYTFGQGTKLEIK	13.3 nM	14.9 nM		
